For one sequence, Kd results are on record in article PMC4423205.

pKd: −log10 of the molar value.

Experiment in all cases: SPR
What all share (details): all L-ribonucleotides (L-RNA, mirror image); SPR (Biacore 2000), chemokine immobilized on CM4/CM5, physiological running buffer, 37 C; complex formation in 20 mM HEPES pH 7.4, 100 mM NaCl, 5 mM KCl, 1 mM …
For orientation: Surface plasmon resonance follows binding to a sensor surface in real time, without labels.

Data set [1] deals with CCL2 R24A R47A (Homo sapiens) (UniProt P13500).
The target in data set [2] is CCL2 S63F S86F (Homo sapiens) (UniProt P13500).
Data set [3] has as its target CCL2 R18A R41A (Homo sapiens) (UniProt P13500).
Data set [4] concerns the target CCL2 S63Y S86Y (Homo sapiens) (UniProt P13500).
In data set [5] the target is CCL2 K19A K42A (Homo sapiens) (UniProt P13500).
For data set [6], the target named is CCL11 (eotaxin) (Homo sapiens) (UniProt P51671).
Data set [7] deals with CCL2 S21P S44P (Homo sapiens) (UniProt P13500).
The target of data set [8] is CCL2 (MCP-1), wild type (Homo sapiens) (UniProt P13500).
Data set [9] addresses CCL13 (MCP-4) (Homo sapiens) (UniProt Q99616).
The target in data set [10] is T1, CCL8 (MCP-2) (Homo sapiens) (UniProt P80075).
T1 sequence: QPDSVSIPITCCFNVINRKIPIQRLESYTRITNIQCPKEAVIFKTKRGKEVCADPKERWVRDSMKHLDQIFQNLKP

Sequence of CCL2 R18A R41A (Homo sapiens) (P13500 24-99 R41A): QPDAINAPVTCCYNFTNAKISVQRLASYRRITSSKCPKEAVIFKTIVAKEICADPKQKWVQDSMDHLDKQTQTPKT
Sequence of CCL13 (MCP-4) (Homo sapiens) (Q99616 24-98): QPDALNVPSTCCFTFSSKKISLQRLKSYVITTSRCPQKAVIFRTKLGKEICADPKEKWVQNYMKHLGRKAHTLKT
Sequence of CCL2 K19A K42A (Homo sapiens) (P13500 24-99 K42A): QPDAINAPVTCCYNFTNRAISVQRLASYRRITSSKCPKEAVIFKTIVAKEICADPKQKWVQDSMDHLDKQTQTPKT
Sequence of CCL2 S21P S44P (Homo sapiens) (P13500 24-99 S44P): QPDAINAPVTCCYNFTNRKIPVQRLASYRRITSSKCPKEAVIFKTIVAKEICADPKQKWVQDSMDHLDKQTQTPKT
Sequence of CCL2 R24A R47A (Homo sapiens) (P13500 24-99 R47A): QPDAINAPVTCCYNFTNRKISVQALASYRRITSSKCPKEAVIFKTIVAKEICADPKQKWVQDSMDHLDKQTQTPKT
Sequence of CCL11 (eotaxin) (Homo sapiens) (P51671 24-97): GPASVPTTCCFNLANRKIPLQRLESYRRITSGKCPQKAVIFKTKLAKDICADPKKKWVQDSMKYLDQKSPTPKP
Sequence of CCL2 S63Y S86Y (Homo sapiens) (P13500 24-99 S86Y): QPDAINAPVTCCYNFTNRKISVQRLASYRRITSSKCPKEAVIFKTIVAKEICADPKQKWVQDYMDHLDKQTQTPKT
Sequence of CCL2 (MCP-1), wild type (Homo sapiens) (P13500 24-99): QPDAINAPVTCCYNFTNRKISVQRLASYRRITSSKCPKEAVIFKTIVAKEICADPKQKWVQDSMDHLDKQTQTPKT
Sequence of CCL2 S63F S86F (Homo sapiens) (P13500 24-99 S86F): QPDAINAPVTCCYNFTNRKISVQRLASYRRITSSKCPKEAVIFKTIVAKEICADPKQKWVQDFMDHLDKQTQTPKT

As usually defined, the pKd is the negative decadic logarithm of the Kd, by convention in mol/L. A low value points to a large Kd. “GCACGUCCCUCACCGGUGCAAGUGAAGCCGUGGCUCUGCG [NOX-E36 L-aptamer (Spiegelmer, without PEG)]”: the pKd in [1] was 5.08; in data set [2], 7.26; in [3] it was 7.85; in data set [4], 7.13; in [5] it was 5.38; in data set [6], 8.51. Also, the pKd is 8.10 in [7], 8.88 in data set [8], 7.66 in data set [9] and 8.47 in [10].
